Assay [1] has as its target T1, mouse CD40 (mouse, UniProt P27512 20-193, limits assumed).
T1 construct: also called murine CD40
T1 sequence (looked up): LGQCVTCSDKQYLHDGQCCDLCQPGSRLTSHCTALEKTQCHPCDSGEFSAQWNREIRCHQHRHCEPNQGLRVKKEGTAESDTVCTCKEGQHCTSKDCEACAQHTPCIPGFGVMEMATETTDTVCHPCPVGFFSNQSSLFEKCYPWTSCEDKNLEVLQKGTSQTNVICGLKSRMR
Put plainly: FACS. (In general: In flow cytometry, cells or beads pass a laser one at a time.)

In the next assay the target is T2, dog CD40 (dog, UniProt Q7YRL5 21-194, limits assumed).
T2 sequence (looked up): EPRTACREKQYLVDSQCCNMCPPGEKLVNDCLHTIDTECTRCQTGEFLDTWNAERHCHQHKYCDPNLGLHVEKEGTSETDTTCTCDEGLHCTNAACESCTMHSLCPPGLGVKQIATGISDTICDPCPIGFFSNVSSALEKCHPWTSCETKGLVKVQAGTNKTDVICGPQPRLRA
Put plainly: FACS.

The target of assay [2] is T3, human CD40 on cells (HEK293 stable transfectants, HEK-Blue CD40 cells, human B cells, monocytic cells, … (human, UniProt P25942 21-277)).
T3 construct: also called cell-surface CD40
T3 sequence (P25942 21-277 limits assumed): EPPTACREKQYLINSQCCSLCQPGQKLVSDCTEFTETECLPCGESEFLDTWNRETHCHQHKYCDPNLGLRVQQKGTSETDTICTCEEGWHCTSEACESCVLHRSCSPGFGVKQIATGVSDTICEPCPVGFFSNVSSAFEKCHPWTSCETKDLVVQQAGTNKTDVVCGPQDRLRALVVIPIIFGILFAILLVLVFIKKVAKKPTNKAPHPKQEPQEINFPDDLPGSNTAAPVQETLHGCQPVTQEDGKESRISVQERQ
The assay is described as follows: FACS, HEK293 transfectants.

For assay [3], the target named is T4, soluble form of the extracellular domain of human CD40 (Creative BioMart) (human, UniProt P25942 21-193).
T4 construct: Bought
T4 sequence (P25942 21-193 limits assumed): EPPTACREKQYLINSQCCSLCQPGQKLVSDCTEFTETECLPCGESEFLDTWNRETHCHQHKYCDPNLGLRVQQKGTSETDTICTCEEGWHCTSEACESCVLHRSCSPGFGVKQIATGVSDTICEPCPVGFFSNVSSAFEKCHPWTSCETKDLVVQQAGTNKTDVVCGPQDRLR
Put plainly: SPR. Background: In SPR one partner is held on a chip, and binding of the other changes the refractive index at the surface.

Assay [4] addresses T5, cynomolgus mesothelin (cynomolgus).
T5 construct: also called cynoMSLN; Cyno MSLN
The assay is described as follows: SPR.

Assay [5] deals with T6, soluble form of the extracellular domain of cynomolgus (cyno) CD40 (Creative BioMart) (cynomolgus, UniProt G7PG38 21-193).
T6 construct: extracellular domain; also called Cynomolgus CD40
Put plainly: SPR.

Assay [6] has as its target T7, human mesothelin (human, UniProt Q13421 296-580, limits assumed).
T7 construct: also called Human MSLN
The assay is described as follows: SPR.

The target of assay [7] is T4, soluble form of the extracellular …. Put plainly: SPR. This is another data set of the same source.
For assay [8], the target named is T7, human mesothelin. The assay is described as follows: SPR. The source holds these as a separate data set.
In assay [9] the target is T5, cynomolgus mesothelin. The assay is described as follows: SPR. This is another data set of the same source.
Assay [10] deals with T6, soluble form of the extracellular …. The assay is described as follows: SPR, fast kinetics.
Assay [11] deals with T3, human CD40 on cells (HEK293 stable …). The assay is described as follows: cell-based or functional assay.
In assay [12] the target is T1, mouse CD40. The assay is described as follows: CD40 binding, format not stated.
Another assay concerns the target T8, MSLN (Table 10-1).
T8 chain: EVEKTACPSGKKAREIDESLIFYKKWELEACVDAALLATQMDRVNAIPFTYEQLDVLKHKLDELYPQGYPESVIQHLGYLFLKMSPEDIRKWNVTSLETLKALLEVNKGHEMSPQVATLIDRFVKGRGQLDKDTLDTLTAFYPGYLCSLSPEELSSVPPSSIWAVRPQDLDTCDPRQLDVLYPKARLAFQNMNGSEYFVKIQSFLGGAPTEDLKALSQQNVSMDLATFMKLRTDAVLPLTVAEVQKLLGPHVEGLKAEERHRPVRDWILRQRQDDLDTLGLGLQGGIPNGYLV
The assay is described as follows: MSLN binding, format not stated.

Where two headings read alike, the source gives them in different places.

Data on three molecules can be found in patent US20180194862A1 (AbbVie / Abbott, published 2018).

The Kd is a measure of binding affinity in units of concentration. High values mean a looser complex, low ones a tighter complex. By koff is commonly meant a measure of how fast the partners let go of each other. Lower therefore signals slow dissociation. Usually kon stands for the second-order rate constant of association. The term EC50 denotes the concentration that produces a half-maximal response. High values mean lower potency in that assay, low ones higher potency in that assay.

B1: huAb8-2 (antibody, human IgG1, V domains shown)
VH: EVQLVQSGAEVKKPGSSVKVSCKASGYTFTDYYINWVRQAPGQGLEWIGWIFPGSGSVYSNEQFKGRATLTVDRSTSTAYMELSSLRSEDTAVYFCASSLGKFAYWGQGTLVTVSS
VL: DIQMTQSPSSLSASVGDRVTITCKASQSVVTAVAWYQQKPGKSPKLLIYSASNRYTGVPSRFSGSGSGTDFTLTISSLQPEDFATYFCQQYSSYPYTFGGGTKVEIK
notes: human IgG1, kappa
Consider B1, for which the binding result in the assay with mouse CD40 [1] was “no binding”; with dog CD40, “no binding”; in [2] it was “binds”.

B2: CF1 (bispecific antibody, human IgG1, lambda)
heavy: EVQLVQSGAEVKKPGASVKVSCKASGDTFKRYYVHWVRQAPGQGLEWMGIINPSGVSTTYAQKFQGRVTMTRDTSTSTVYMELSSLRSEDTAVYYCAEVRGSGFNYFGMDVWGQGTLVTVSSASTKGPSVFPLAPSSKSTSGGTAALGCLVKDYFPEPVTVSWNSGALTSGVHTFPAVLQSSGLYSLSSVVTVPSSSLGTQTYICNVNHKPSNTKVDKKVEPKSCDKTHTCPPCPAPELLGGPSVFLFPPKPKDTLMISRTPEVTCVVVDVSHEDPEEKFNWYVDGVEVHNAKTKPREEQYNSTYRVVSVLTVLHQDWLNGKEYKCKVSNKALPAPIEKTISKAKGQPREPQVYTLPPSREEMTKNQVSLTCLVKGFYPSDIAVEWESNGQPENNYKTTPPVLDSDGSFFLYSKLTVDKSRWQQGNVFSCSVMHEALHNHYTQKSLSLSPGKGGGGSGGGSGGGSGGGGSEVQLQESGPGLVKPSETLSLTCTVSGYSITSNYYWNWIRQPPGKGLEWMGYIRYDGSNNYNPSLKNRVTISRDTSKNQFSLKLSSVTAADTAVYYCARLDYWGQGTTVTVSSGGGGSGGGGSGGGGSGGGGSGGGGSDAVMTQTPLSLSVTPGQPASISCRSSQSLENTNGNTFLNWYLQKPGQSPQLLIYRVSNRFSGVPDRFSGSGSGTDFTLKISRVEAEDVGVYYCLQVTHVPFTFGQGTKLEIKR
light: SYELTQPPSVSVSPGQTASITCSGDKLGDKYASWYQQKPGQSPVLVIYQDNRRPSGIPERFSGSNSGNTATLTISGTQAMDEADYYCQAWDSDTYVFGTGTKVTVLGQPKAAPSVTLFPPSSEELQANKATLVCLISDFYPGAVTVAWKADSSPVKAGVETTTPSKQSNNKYAASSYLSLTPEQWKSHRSYSCQVTHEGSTVEKTVAPTECS
notes: IgG-scFv: HuAM15 Fab, IgG1 V273E, CD40 scFv
As for B2, the Kd in [3] is under 400 nM; in the assay with cynomolgus mesothelin [4], at most 0.29 nM; in assay [5] it was under 150 nM; with human mesothelin [6], under 400 nM; in [7], 390 nM; with human mesothelin [8] it was 0.47 nM. For the same molecule, the Kd with cynomolgus mesothelin [9] was 0.23 nM; in [10] it was 150 nM. In addition, the koff was 0.26 s⁻¹ in assay [7], 2.4e-05 s⁻¹ with human mesothelin [8] and 7.1e-05 s⁻¹ in the assay with cynomolgus mesothelin [9]. The results for the kon (in assay [7]; in the assay with human mesothelin [8]; in the assay with cynomolgus mesothelin [9]) were 680000 M⁻¹ s⁻¹, 52000 M⁻¹ s⁻¹ and 310000 M⁻¹ s⁻¹, respectively. Besides, the “Max. IL-12p70, dendritic cells with cell-surface mesothelin” value in assay [11] was 100 pg/mL.

B3: LB-1 (bispecific antibody, mouse IgG1)
chain: EVQLVESGGGLVQPGRSLKLSCAASGFTFSNYDMAWVRQAPTKGLEWVASISPSGGRTYYRDSVKGRFTVSRDNAKSTLYLQMDSLRSEDTATYYCARHDGSYFDYWGQGVMVTVSSDLSGGGGSGGGGSGGGGSGGGGSTGDTVLTQSPALAVSPGERVTISCRASESVSTLMHWYQQKPGQQPKLLIYLASHLESGVPARFSGSGSGTDFTLTIDPVEADDTATYYCQESWNDPWTFGGGTKLELKRLEVPRDSGSKPCICTVPEVSSVFIFPPKPKDVLTITLTPKVTCVVVDISKDDPEVQFSWFVDDVEVHTAQTQPREEQFNSTFRSVSELPIMHQDWLNGKEFKCRVNSAAFPAPIEKTISKTKGRPKAPQVYTIPPPKEQMAKDKVSLTCMITDFFPEDITVEWQWNGQPAENYKNTQPIMDTDGSYFVYSKLNVQKSNWEAGNTFTCSVLHEGLHNHHTEKSLSHSPGKVDGASSPVNVSSPSVQDIQVQLVQSGAEVKKPGASVKVSCKASGYTFTGNYINWVRQAPGQGLEWMGIINPTKGWTLYAQKFQGRVTMTRDTSISTAYMELSSLRSEDTAVYYCARWHHGTWIFDYWGQGTLVTVSSDLSGGGGSGGGGSGGGGSGGGGSTGDIVLTQPPSVSGAPGQRVTISCSGSSSNIGSNYVSWYQQLPGTAPKLLIYNDNQRPSGVPDRFSGSKSGTSASLAITGLQSEDEADYYCSTYDRRTFSVFGGGTKLTVLG
notes: 1C10 scFv (VH→VL), murine IgG1 hinge-CH2-CH3, MOR06626 scFv (VH→VL); also called mouse bispecific formula (I) protein LB-1
B3: the EC50 with mouse CD40 [12] stood at 2.75 µg/mL; with MSLN (Table 10-1), 1.39 µg/mL.
